Assay results taken from patent publication US20220323583A1 (MacroGenics, published 2022).

Key:
[1] = target: human CD123 on target cell lines (Kasumi-3, Molm13, THP-1, TF-1, RS4-11) (human, UniProt P26951 19-378); test: cell-based or functional assay
[2] = target: T1, Human CD123-His (human, UniProt P26951 19-305, limits assumed); test: kinetic binding measurement, method not stated
T1 construct: Only the label 'Human CD123-His' is printed; also called interleukin 3 receptor alpha; IL-3Ra; not shown: His tag
T1 sequence (looked up): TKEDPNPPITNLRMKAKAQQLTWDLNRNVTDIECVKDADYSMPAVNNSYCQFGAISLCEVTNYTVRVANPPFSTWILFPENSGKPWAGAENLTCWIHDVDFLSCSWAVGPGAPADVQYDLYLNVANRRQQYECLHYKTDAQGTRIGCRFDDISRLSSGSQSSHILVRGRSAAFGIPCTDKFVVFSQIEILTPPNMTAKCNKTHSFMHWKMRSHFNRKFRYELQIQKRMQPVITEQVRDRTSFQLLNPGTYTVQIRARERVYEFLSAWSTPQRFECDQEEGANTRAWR

[3] = target: T2, Cynomolgus CD123-His (cynomolgus monkey); test: kinetic binding measurement, method not stated
T2 construct: Only the label 'Cynomolgus CD123-His' is printed; also called cynomolgus monkey CD123

B1: DART-A, sequence-optimized CD123×CD3 bispecific diabody (bispecific antibody)
chain 1: QAVVTQEPSLTVSPGGTVTLTCRSSTGAVTTSNYANWVQQKPGQAPRGLIGGTNKRAPWTPARFSGSLLGGKAALTITGAQAEDEADYYCALWYSNLWVFGGGTKLTVLGGGGSGGGGEVQLVQSGAELKKPGASVKVSCKASGYTFTDYYMKWVRQAPGQGLEWIGDIIPSNGATFYNQKFKGRVTITVDKSTSTAYMELSSLRSEDTAVYYCARSHLLRASWFAYWGQGTLVTVSSGGCGGGEVAALEKEVAALEKEVAALEKEVAALEK
chain 2: DFVMTQSPDSLAVSLGERVTMSCKSSQSLLNSGNQKNYLTWYQQKPGQPPKLLIYWASTRESGVPDRFSGSGSGTDFTLTISSLQAEDVAVYYCQNDYSYPYTFGQGTKLEIKGGGSGGGGEVQLVESGGGLVQPGGSLRLSCAASGFTFSTYAMNWVRQAPGKGLEWVGRIRSKYNNYATYYADSVKDRFTISRDDSKNSLYLQMNSLKTEDTAVYYCVRHGNFGNSYVSWFAYWGQGTLVTVSSGGCGGGKVAALKEKVAALKEKVAALKEKVAALKE
notes: Two chains covalently bonded by a disulfide bond, no Fc; a second species lacks the C-terminal lysine; also called CD123×CD3 diabody; CD123 × CD3 Bi-Specific Diabodies
In the case of B1, the “EC50 of redirected killing, E:T = 10:1, Kasumi-3 target cells” value [1] is reported as 0.01 ng/mL, the “EC50 of redirected killing, E:T = 10:1, Molm13 target cells” value [1] is reported as 0.18 ng/mL and the “EC50 of redirected killing, E:T = 10:1, RS4-11 target cells” value [1] is reported as 0.5 ng/mL. For the same binder, the “EC50 of redirected killing, E:T = 10:1, TF-1 target cells” value [1] was 0.46 ng/mL, the “EC50 of redirected killing, E:T = 10:1, THP-1 target cells” value [1] was 0.24 ng/mL and the Kd [2] was 0.13 nM. For the same binder, the koff [2] was 0.00019 s⁻¹, the kon [2] was 1.6e+06 M⁻¹ s⁻¹ and the Kd [3] was 0.27 nM. For the same binder, the koff [3] was 0.0004 s⁻¹ and the kon [3] was 1.5e+06 M⁻¹ s⁻¹.
